Assay results taken from patent publication US20260250737A1, “Engineered Luciferases and Luciferin Substrates” (Monod Bio, Inc., priority 2023, published 2026).

What was measured:
Type in all cases: biochemical
[1] = tested on: construct containing Small Lux (SmLux), Large Lux (LgLux), FKBP and FRB; assay: LuxSit split optimization: SmLux-LgLux-FKBP-FRB construct on the surface of yeast, rapamycin-induced signal; conditions: Table 19, LgLux variants, 50 uM substrate 1c; for Fold change upon Rap addition: 20 uM Rapamycin
Procedure: To optimize the function of the LuxSit Splits, a construct containing Small Lux (SmLux), Large Lux (LgLux) and the proteins that bind the molecule Rapamycin (FKBP and FRB), connected by GS linkers, was expressed on the surface of yeast. When 50 uM of substrate 1c is added to yeast expressing this construct, a baseline signal is observed due to SmLux and LgLux reconstitution. When 20 uM of Rapamycin is added, SmLux and LgLux are brought closer to each other by FKBP and FRB, enhancing their reconstitution. As a result, an increase in signal is observed.
Libraries of SmLux and LgLux were assembled and tested independently to identify variants with lower baseline and higher fold change.

SmLux [2] = assay: LgLux stability optimization: error-prone PCR LgLux mutants on yeast, protease treatment, SmLux complementation; conditions: Table 20, EP-PCR LgLux mutants on yeast, 50 uM substrate 1c; for Fold change upon SmLux peptide addition: 200 nM SmLux
Procedure: LgLux mutants were generated by error-prone PCR (EP-PCR) and treated with protease and their activity measured as depicted schematically in FIG. 44.
Yeast expressing a library of the LgLux mutants were incubated with proteases and screened to select variants that were stable enough to resist proteolysis. Functional variants were selected by adding 50 uM of substrate 1c and 200 nM of SmLux.
The nucleotide sequence encoding LgLux_4039 was subjected to EP-PCR to identify protease-stable mutants. The sequences (SEQ ID NOs: 2806-2814) and activity of the mutants are summarized below in Table 20.

SmLux [3] = assay: Computationally generated LgLux variants expressed in E. coli, tested in lysates with SmLux and substrate 1c; conditions: for Fold change upon SmLux peptide addition: Table 22, 20 uM SmLux, 50 uM substrate 1c; for Baseline Signal (Normalized by expression): Table 22, 50 uM substrate 1c
Summary of the method: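 Variants expressed in E. coli and screened as lysates, complemented with 20 uM SmLux and given 50 uM substrate 1c; luminescent activity measured.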

B1: MBIO-5335: LgLux_4039 variant S2C, R11L, V46I, E54D; SEQ ID NO 2797 (protein)
chain: MCEEQIRQNLLRFYEALDSGDAITAASLFDPGVTITLWDGTTFTSIEEFREWFDSQFSTSKDALREISSLEVRGDTVEVTVRLSFTRNGQKHTVDLLQLFKFV
- Baseline Signal (Normalized by expression) [1]: 23769.5
- Fold change upon Rap addition [1]: 1.9

B2: MBIO-5340: LgLux_4039 variant S2T, I6L, R11L, E48K; SEQ ID NO 2804 (protein)
chain: MTEEQLRQNLLRFYEALDSGDAITAASLFDPGVTITLWDGTTFTSVEKFREWFESQFSTSKDALREISSLEVRGDTVEVTVRLSFTRNGQKHTVDLLQLFKFV
- Baseline Signal (Normalized by expression) [1]: 6666.1
- Fold change upon Rap addition [1]: 2.2

B3: SEQ ID NO 2807: LgLux_4039 EP-PCR mutant L99Q (protein)
chain: MSEEQIRQNLRRFYEALDSGDAITAASLFDPGVTITLWDGTTFTSVEEFREWFESQFSTSKDALREISSLEVRGDTVEVTVRLSFTRNGQKHTVDLLQQFKFV
- Baseline Signal (Normalized by expression) (SmLux [2]): 738.4
- Fold change upon SmLux peptide addition (SmLux [2]): 83.3

B4: SEQ ID NO 2805: LgLux_4039 variant S19C (protein)
chain: MSEEQIRQNLRRFYEALDCGDAITAASLFDPGVTITLWDGTTFTSVEEFREWFESQFSTSKDALREISSLEVRGDTVEVTVRLSFTRNGQKHTVDLLQLFKFV
- Baseline Signal (Normalized by expression) [1]: 3667.6
- Fold change upon Rap addition [1]: 2

B5: MBIO-5336: LgLux_4039 variant R11L; SEQ ID NO 2798 (protein)
chain: MSEEQIRQNLLRFYEALDSGDAITAASLFDPGVTITLWDGTTFTSVEEFREWFESQFSTSKDALREISSLEVRGDTVEVTVRLSFTRNGQKHTVDLLQLFKFV
- Baseline Signal (Normalized by expression) [1]: 16379.8
- Fold change upon Rap addition [1]: 2.1

B6: SEQ ID NO 2808: LgLux_4039 EP-PCR mutant K101E (protein)
chain: MSEEQIRQNLRRFYEALDSGDAITAASLFDPGVTITLWDGTTFTSVEEFREWFESQFSTSKDALREISSLEVRGDTVEVTVRLSFTRNGQKHTVDLLQLFEFV
- Baseline Signal (Normalized by expression) (SmLux [2]): 228.3
- Fold change upon SmLux peptide addition (SmLux [2]): 86.8

B7: MBIO-5338: LgLux_4039 variant T41A, H92Q; SEQ ID NO 2800 (protein)
chain: MSEEQIRQNLRRFYEALDSGDAITAASLFDPGVTITLWDGATFTSVEEFREWFESQFSTSKDALREISSLEVRGDTVEVTVRLSFTRNGQKQTVDLLQLFKFV
- Baseline Signal (Normalized by expression) [1]: 18945.1
- Fold change upon Rap addition [1]: 2.2

B8: SEQ ID NO 2806: LgLux_4039 EP-PCR mutant N9S (protein)
chain: MSEEQIRQSLRRFYEALDSGDAITAASLFDPGVTITLWDGTTFTSVEEFREWFESQFSTSKDALREISSLEVRGDTVEVTVRLSFTRNGQKHTVDLLQLFKFV
- Baseline Signal (Normalized by expression) (SmLux [2]): 973.7
- Fold change upon SmLux peptide addition (SmLux [2]): 126.7

B9: MBIO-5337: LgLux_4039 variant R11L, D30N; SEQ ID NO 2799 (protein)
chain: MSEEQIRQNLLRFYEALDSGDAITAASLFNPGVTITLWDGTTFTSVEEFREWFESQFSTSKDALREISSLEVRGDTVEVTVRLSFTRNGQKHTVDLLQLFKFV
- Baseline Signal (Normalized by expression) [1]: 14853.7
- Fold change upon Rap addition [1]: 2.1

B10: MBIO-5342: LgLux_4039 variant E54G, S55T, R87S; SEQ ID NO 2802 (protein)
chain: MSEEQIRQNLRRFYEALDSGDAITAASLFDPGVTITLWDGTTFTSVEEFREWFGTQFSTSKDALREISSLEVRGDTVEVTVRLSFTSNGQKHTVDLLQLFKFV
- Baseline Signal (Normalized by expression) [1]: 3361.4
- Fold change upon Rap addition [1]: 2

B11: MBIO-5339: LgLux_4039 variant R11L, I23V; SEQ ID NO 2801 (protein)
chain: MSEEQIRQNLLRFYEALDSGDAVTAASLFDPGVTITLWDGTTFTTVEEFREWFESQFSTSKDALREISSLEVRGDTVEVTVRLSFTRNGQKHTVDLLQLFKFV
- Baseline Signal (Normalized by expression) [1]: 28286
- Fold change upon Rap addition [1]: 1.9

B12: SEQ ID NO 2809: LgLux_4039 EP-PCR mutant N9D, V103I (protein)
chain: MSEEQIRQDLRRFYEALDSGDAITAASLFDPGVTITLWDGTTFTSVEEFREWFESQFSTSKDALREISSLEVRGDTVEVTVRLSFTRNGQKHTVDLLQLFKFI
- Baseline Signal (Normalized by expression) (SmLux [2]): 638.6
- Fold change upon SmLux peptide addition (SmLux [2]): 170

B13: SEQ ID NO 2810: LgLux_4039 EP-PCR mutant F43L (protein)
chain: MSEEQIRQNLRRFYEALDSGDAITAASLFDPGVTITLWDGTTLTSVEEFREWFESQFSTSKDALREISSLEVRGDTVEVTVRLSFTRNGQKHTVDLLQLFKFV
- Baseline Signal (Normalized by expression) (SmLux [2]): 327.2
- Fold change upon SmLux peptide addition (SmLux [2]): 81.7

B14: MBIO-5341: LgLux_4039 variant P31S; SEQ ID NO 2803 (protein)
chain: MSEEQIRQNLRRFYEALDSGDAITAASLFDSGVTITLWDGTTFTSVEEFREWFESQFSTSKDALREISSLEVRGDTVEVTVRLSFTRNGQKHTVDLLQLFKFV
- Baseline Signal (Normalized by expression) [1]: 10433.7
- Fold change upon Rap addition [1]: 2.2

B15: MBIO-5371: computationally generated LgLux, SEQ ID NO 2786 (protein)
chain: MTPEERIADVLAFYAALASGDLEAAKALFNPGVTITLWDGTTFTSVEEFRAWFEEQFKTSKDALREIESIEVDGDTVRVLVRLSFTRNGQKHTVDLLQQFKFI
- Fold change upon SmLux peptide addition (SmLux [3]): 48.58
- Baseline Signal (Normalized by expression) (SmLux [3]): 234.6

B16: MBIO-5372: computationally generated LgLux, SEQ ID NO 2787 (protein)
chain: MTPEERIADVLAFYAALASGDLEAAKALFNPGVTITLWDGTTFTSVEEFRAWFEEQFKTSKDALREIESIEVDGDTVRVLVRLTFVRDGEEKVVDLLQQFKFI
- Fold change upon SmLux peptide addition (SmLux [3]): 20.86
- Baseline Signal (Normalized by expression) (SmLux [3]): 210.6

B17: MBIO-5375: computationally generated LgLux, SEQ ID NO 2790 (protein)
chain: MTPEERIADVRAFYAALASGDLEAAKALFDPGVTITLWDGTTFTSVEEFRAWFEEQFKTSKDALREIESIEVDGDTVRVLVRLSFTRNGQKHTVDLLQLFKFV
- Fold change upon SmLux peptide addition (SmLux [3]): 98.41
- Baseline Signal (Normalized by expression) (SmLux [3]): 207.6

B18: MBIO-5376: computationally generated LgLux, SEQ ID NO 2791 (protein)
chain: MTPEERIADVRAFYAALASGDLEAAKALFDPGVTITLWDGTTFTSVEEFRAWFEEQFKTSKDALREIESIEVDGDTVRVLVRLSFTRNGQKHTVDLLQLFKFI
- Fold change upon SmLux peptide addition (SmLux [3]): 245.29
- Baseline Signal (Normalized by expression) (SmLux [3]): 409.4

B19: MBIO-5373: computationally generated LgLux, SEQ ID NO 2788 (protein)
chain: MTPEERIANVLAFYAALASGDLEAAAALFNPGVTITLWDGTTFTSVEEFRAWFEEQFKTSKDALREIESIEVDGDTVRVLVRLTFVRDGEEKVVDLLQLFKFV
- Fold change upon SmLux peptide addition (SmLux [3]): 151.01
- Baseline Signal (Normalized by expression) (SmLux [3]): 388.2

B20: MBIO-5374: computationally generated LgLux, SEQ ID NO 2789 (protein)
chain: MTPEERIANVRAFYAALASGDLEAAAALFDPGVTITLWDGTTFTSVEEFRAWFEEQFKTSKDALREIESIEVDGDTVRVLVRLTFVRDGEEKVVDLLQLFKFV
- Fold change upon SmLux peptide addition (SmLux [3]): 240.47
- Baseline Signal (Normalized by expression) (SmLux [3]): 796
